{
  "source": "paper PMC9456352",
  "key": {"[1]": {"target": "ETE/P186G mutant (Staphylococcus aureus)", "assay": "not stated; shown in Figure S5 (not shown); the methods tell SEC of ETE/P186G in 20 mM MES pH 7.0, 150 mM NaCl and BN-PAGE of peak fractions"}, "[2]": {"target": "Staphylococcus aureus exfoliative toxin E (Staphylococcus aureus)", "assay": "native gel or EMSA; BN-PAGE 15%, 30 ug protein, running buffer 25 mM Tris pH 8.3, 192 mM glycine; BSA monomer and bovine beta-trypsin as markers; Coomassie stain"}, "[3]": {"target": "Staphylococcus aureus exfoliative toxin E (Staphylococcus aureus)", "assay": "SEC; Superdex G75 10/300 GL, 0.7 mL/min; several buffers, NaCl concentrations and pH values (among them 20 mM MES pH 7.0, 150 mM NaCl); BSA (~66 kDa) and bovine beta-trypsin (~24 kDa) as size controls; absorbance at 230 nm"}, "[4]": {"target": "Staphylococcus aureus exfoliative toxin E (Staphylococcus aureus)", "assay": "SAXS; 5 mg/mL ETE in 20 mM MES pH 7.0, 150 mM NaCl, 25 °C; pair distance distribution by indirect Fourier transform"}},
  "data": [
    {"substance": "ETE/P186G mutant (enzyme)", "values": [
      {"measurement": "stoichiometry N", "setting": "[1]", "value": 2}
    ]},
    {"substance": "Staphylococcus aureus exfoliative toxin E (enzyme)", "values": [
      {"measurement": "stoichiometry N", "setting": "[2]", "value": 2},
      {"measurement": "stoichiometry N", "setting": "[3]", "value": 2},
      {"measurement": "stoichiometry N", "setting": "[4]", "value": 2}
    ]}
  ]
}
